Molecular target: the molecule itself
Assay: SEC

B1: wild-type pea cytosolic ascorbate peroxidase (APX) (enzyme)
chain: GKSYPTVSPDYQKAIEKAKRKLRGFIAEKKCAPLILRLAWHSAGTFDSKTKTGGPFGTIKHQAELAHGANNGLDIAVRLLEPIKEQFPIVSYADFYQLAGVVAVEITGGPEVPFHPGREDKPEPPPEGRLPDATKGSDHLRDVFGKAMGLSDQDIVALSGGHTIGAAHKERSGFEGPWTSNPLIFDNSYFTELLTGEKDGLLQLPSDKALLTDSVFRPLVEKYAADEDVFFADYAEAHLKLSELGFAEA
Question: For B1, which “stoichiometry N” value is on record?
Answer: The value was 2.

Source: paper PMC3699407 (Nature biotechnology, 2012)
